Assay [1] has as its target T1, human [1-305]-mouse chimeric EL (human; mouse, UniProt Q9WVG5 306-500).
T1 sequence: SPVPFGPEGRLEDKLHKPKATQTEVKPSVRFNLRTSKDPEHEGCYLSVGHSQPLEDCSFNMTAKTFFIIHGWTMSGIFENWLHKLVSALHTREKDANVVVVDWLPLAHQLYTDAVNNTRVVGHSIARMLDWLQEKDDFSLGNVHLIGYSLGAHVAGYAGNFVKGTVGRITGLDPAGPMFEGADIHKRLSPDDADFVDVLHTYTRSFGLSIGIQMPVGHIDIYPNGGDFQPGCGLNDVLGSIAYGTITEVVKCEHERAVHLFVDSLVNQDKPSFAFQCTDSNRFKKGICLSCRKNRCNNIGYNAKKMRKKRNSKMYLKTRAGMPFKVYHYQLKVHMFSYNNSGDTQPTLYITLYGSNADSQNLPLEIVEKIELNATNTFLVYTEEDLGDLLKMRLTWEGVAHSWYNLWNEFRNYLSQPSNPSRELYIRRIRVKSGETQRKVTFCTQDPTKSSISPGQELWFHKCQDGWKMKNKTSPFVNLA
The assay is described as follows: cell-based or functional assay.

The target in assay [2] is T1, human [1-305]-mouse chimeric EL. Put plainly: Biacore; EL captured by anti-C2-tag Ab; bivalent fit. The procedure:
The binding affinities of anti-EL antibodies were measured using Biacore. […] Then, anti-EL humanized antibodies were added and the binding affinities were calculated by bivalent fitting of BIAevaluation software.

B1: h16B3-S5 (antibody, V domains shown)
VH: EVQLVESGGGLVQPGGSLRLSCAASGFTFSGYTMSWVRQAPGKGLEWVSEISFARDRAFYPDTVKGRFTISRDNSKNTLYLQMNSLRAEDTAVYYCARLGGKNRDFWYFDLWGQGTTVTVSS
VL: DIVMTQSPDSLAVSLGERATINCRASESVEYYGTSLMQWYQQKPGQPPKLLIYAASNVESGVPDRFSGSGSGTDFTLTISSLQAEDVAVYYCQQSWKVPFTFGQGTKLEIK
notes: humanized
Regarding B1, the “Neutralizing activity IC50” value in assay [1] amounted to 1.2 nM. In assay [2], this molecule displayed a Kd of 1 nM, a koff of 5.7e-05 s⁻¹ and a kon of 54000 M⁻¹ s⁻¹.

B2: h16B3-S1 (antibody, V domains shown)
VH: EVQLVESGGGLVQPGGSLRLSCAASGFTFSGYTMSWVRQAPGKGLEWVSEISFARDRAFYPDTVKGRFTISRDNSKNTLYLQMNSLRAEDTAVYYCAKLGGRNHDYWYFDVWGQGTTVTVSS
VL: DIVMTQSPDSLAVSLGERATINCRASESVEYYGTSLMQWYQQKPGQPPKLLIYAASNVESGVPDRFSGSGSGTDFTLTISSLQAEDVAVYYCQQSWKVPFTFGQGTKLEIK
On to B2, for which the “Neutralizing activity IC50” value in assay [1] amounted to 2.7 nM.

B3: h16B3-S6 (antibody, V domains shown)
VH: EVQLVESGGGLVQPGGSLRLSCAASGFTFSGYTMSWVRQAPGKGLEWVSEISFARDRAFYPDTVKGRFTISRDNSKNTLYLQMNSLRAEDTAVYYCARLGGKNRDFWYFDLWGQGTTVTVSS
VL: DIVMTQSPDSLAVSLGERATINCRASESVEYYGTSLMQWYQQKPGQPPKLLIYAASNVESGVPDRFSGSGSGTDFTLTISSLQAEDVAVYYCQQSWRVPFTFGQGTKLEIK
notes: humanized
Regarding B3, the “Neutralizing activity IC50” value in assay [1] was 1 nM. In assay [2], this molecule showed a Kd of 1 nM, a koff of 5.8e-05 s⁻¹ and a kon of 60000 M⁻¹ s⁻¹.

B4: h16B3-S4 (antibody, V domains shown)
VH: EVQLVESGGGLVQPGGSLRLSCAASGFTFSGYTMSWVRQAPGKGLEWVSEISFARDRAFYPDTVKGRFTISRDNSKNTLYLQMNSLRAEDTAVYYCARLGGKNHDFWYFDVWGQGTTVTVSS
VL: DIVMTQSPDSLAVSLGERATINCRASESVEYYGTSLMQWYQQKPGQPPKLLIYAASNVESGVPDRFSGSGSGTDFTLTISSLQAEDVAVYYCQQSWRVPFTFGQGTKLEIK
notes: humanized
On to B4, for which the “Neutralizing activity IC50” value in assay [1] came to 1.7 nM. Moreover, in assay [2], the Kd is 3 nM, the koff was 0.00018 s⁻¹ and the kon was 61000 M⁻¹ s⁻¹.

B5: h16B3-S7 (antibody, V domains shown)
VH: EVQLVESGGGLVQPGGSLRLSCAASGFTFSAYTMSWVRQAPGKGLEWVSDISFARDRAFYPDTVKGRFTISRDNSKNTLYLQMNSLRAEDTAVYYCARLGGKNRDFWYFDLWGQGTTVTVSS
VL: DIVMTQSPDSLAVSLGERATINCRASESVEYYGTSLMQWYQQKPGQPPKLLIYAASNVESGVPDRFSGSGSGTDFTLTISSLQAEDVAVYYCQQSWKVPFTFGQGTKLEIK
notes: humanized
On to B5, for which, in assay [1], the “Neutralizing activity IC50” value turned out to be 1.4 nM. Also, in assay [2], the Kd turned out to be 1.2 nM, the off-rate constant (koff) was 5.9e-05 s⁻¹ and the kon was 50000 M⁻¹ s⁻¹.

B6: h16B3-S3 (antibody, V domains shown)
VH: EVQLVESGGGLVQPGGSLRLSCAASGFTFSGYTMSWVRQAPGKGLEWVSEISFARDRAFYPDTVKGRFTISRDNSKNTLYLQMNSLRAEDTAVYYCARLGGKNHDFWYFDVWGQGTTVTVSS
VL: DIVMTQSPDSLAVSLGERATINCRASESVEYYGTSLMQWYQQKPGQPPKLLIYAASNVESGVPDRFSGSGSGTDFTLTISSLQAEDVAVYYCQQSWKVPFTFGQGTKLEIK
notes: humanized
On to B6, for which the “Neutralizing activity IC50” value in assay [1] is 1.9 nM. In assay [2], this molecule displayed a Kd of 4.5 nM, a koff of 0.00013 s⁻¹ and a kon of 30000 M⁻¹ s⁻¹.

B7: h16B3-S8 (antibody, V domains shown)
VH: EVQLVESGGGLVQPGGSLRLSCAASGFTFSAYTMSWVRQAPGKGLEWVSDISFARDRAFYPDTVKGRFTISRDNSKNTLYLQMNSLRAEDTAVYYCARLGGKNRDFWYFDLWGQGTTVTVSS
VL: DIVMTQSPDSLAVSLGERATINCRASESVEYYGTSLMQWYQQKPGQPPKLLIYAASNVESGVPDRFSGSGSGTDFTLTISSLQAEDVAVYYCQQSWRVPFTFGQGTKLEIK
notes: humanized
For the molecule B7, in assay [1], the “Neutralizing activity IC50” value was found to be 1.4 nM. In addition, in assay [2], the Kd stood at 0.78 nM, the koff was determined as 4e-05 s⁻¹ and the on-rate constant (kon) was found to be 52000 M⁻¹ s⁻¹.

B8: h53A11-S2 (antibody, V domains shown)
VH: QVQLVQSGAEVKKPGASVKVSCKASGYTFTDYTMHWVRQAPGQRLEWMGGINPYYGGTTYNEKFKDRVTITRDTSASTAYMELSSLRSEDTAVYYCAKGDYYGGSYNYWGQGTTVTVSS
VL: EIVMTQSLATLSVSPGERATLSCRASQDISNSLHWYQQKPGQAPRLLIYYASQSISGIPARFSGSGSGTEFTLTISSLQSEDFAVYYCQQSNSWPYTFGQGTKLEIK
Turning to B8, in assay [1], the “Neutralizing activity IC50” value was found to be 2.7 nM.

B9: h53A11-S3 (antibody, V domains shown)
VH: QVQLVQSGAEVKKPGASVKVSCKASGYTFTDYTMHWVRQAPGQRLEWMGGINPYYGGTTYNEKFKDRVTITRDTSASTAYMELSSLRSEDTAVYYCAKGDYYGGSYNYWGQGTTVTVSS
VL: EIVMTQSPATLSVSPGERATLSCRASQDISNSLHWYQQKPGQAPRLLIKYASQSISGIPARFSGSGSGTEFTLTISSLQSEDFAVYYCQQSNSWPYTFGQGTKLEIK
Take B9: the “Neutralizing activity IC50” value in assay [1] was 1.8 nM.

B10: h55A1-S4 (antibody, V domains shown)
VH: QVQLVQSGSELKKPGASVKVSCKASGYTFTNYAMNWVRQAPGQGLEWMGWINTYSGVGTYAGDFKGRFVFSLDTSVSTAYLQISSLKAEDTAVYYCARRGFYGRRFFDVWGKGTTVTVSS
VL: DIVLTQSPASLAVSPGQRATITCKASQSVDYDVDSYMHWYQQKPGQPPKLLIYAASNLASGVPARFSGSGSGTDFTLTINPVEANDTANYYCQQTIEDPPTFGGGTKVEIK
notes: humanized
For the molecule B10, the “Neutralizing activity IC50” value in assay [1] turned out to be 1.1 nM. Also, in assay [2], the Kd worked out at 3 nM, the koff stood at 0.00024 s⁻¹ and the kon was determined as 80000 M⁻¹ s⁻¹.

B11: h55A1-S3 (antibody, V domains shown)
VH: QVQLVQSGSELKKPGASVKVSCKASGYTFTNYGLNWVRQAPGQGLEWMGWINTYSGVPTYAGDFKGRFVFSLDTSVSTAYLQISSLKAEDTAVYYCARRGYYGRRFFDVWGKGTTVTVSS
VL: DIVLTQSPASLAVSPGQRATITCKASQSVDYDVDSYMHWYQQKPGQPPKLLIYAASNLASGVPARFSGSGSGTDFTLTINPVEANDTANYYCQNTIEDPPTFGGGTKVEIK
notes: humanized
Take B11: the “Neutralizing activity IC50” value in assay [1] was found to be 1.2 nM. Besides, in assay [2], the Kd was 4.2 nM, the off-rate constant (koff) is 0.00051 s⁻¹ and the association rate constant (kon) was 120000 M⁻¹ s⁻¹.

B12: h55A1-S2 (antibody, V domains shown)
VH: QVQLVQSGSELKKPGASVKVSCKASGYTFTNYGLNWVRQAPGQGLEWMGWINTYSGVPTYAGDFKGRFVFSLDTSVSTAYLQISSLKAEDTAVYYCARRGYYGRRFFDVWGKGTTVTVSS
VL: DIVLTQSPASLAVSPGQRATITCKASQSVDYDVDSYMHWYQQKPGQPPKLLIYAASNLASGVPARFSGSGSGTDFTLTINPVEANDTANYYCQQTIEDPPTFGGGTKVEIK
notes: humanized
For the molecule B12, the “Neutralizing activity IC50” value in assay [1] came to 1.1 nM. For the same molecule, in assay [2], the Kd worked out at 11 nM, the koff was 0.00037 s⁻¹ and the kon stood at 35000 M⁻¹ s⁻¹.

B13: h13B3-S2 (antibody, V domains shown)
VH: QVQLVQSGAEVKKPGASVKVSCKASGYTFTEYTMHWVRQAPGQGLEWMGSINPYYGGTSYNEKFKDRVTSTRDTSISTAYMELSRLRSDDTVVYYCARYGNYVGYFDYWGQGTTVTVSS
VL: EIVLTQSPGTLSLSPGERATLSCRASSSVHYMYWYQQKPGQAPRLLIYYTSNLAPGIPDRFSGSGSGTDFTLTISRLEPEDFAVYYCQQFTSSPYTFGGGTKVEIK
B13: the “Neutralizing activity IC50” value in assay [1] came out at 9 nM.

B14: h13B3-S3 (antibody, V domains shown)
VH: QVQLVQSGAEVKKPGASVKVSCKASGYTFTEYTMHWVRQAPGQGLEWMGSINPYYGGTSYNEKFKDRVTMTRDTSTSTVYMELSSLRSEDTAVYYCARYGNYVGYFDYWGQGTTVTVSS
VL: EIVLTQSPATLSLSPGERATLSCRASSSVHYMYWYQQKPGQAPRLLIYYTSNLAPGIPARFSGSGSGTDFTLTISSLEPEDFAVYYCQQFTSSPYTFGGGTKVEIK
Take B14: the “Neutralizing activity IC50” value in assay [1] was 2.1 nM.

B15: h13B3-S4 (antibody, V domains shown)
VH: QVQLVQSGAEVKKPGASVKVSCKASGYTFTEYTMHWVRQAPGQGLEWMGSINPYYGGTSYNEKFKDRVTSTRDTSISTAYMELSRLRSDDTVVYYCARYGNYVGYFDYWGQGTTVTVSS
VL: EIVLTQSPATLSLSPGERATLSCRASSSVHYMYWYQQKPGQAPRLLIYYTSNLAPGIPARFSGSGSGTDFTLTISSLEPEDFAVYYCQQFTSSPYTFGGGTKVEIK
Take B15: the “Neutralizing activity IC50” value in assay [1] was 2.6 nM.

B16: h23H8-S3 (antibody, V domains shown)
VH: QVQLVQSGAEVKKPGASVKVSCKASGYTFTDNTIHWVRQAPGQGLEWMGHINPYYGGTNNNEKFKDRVTMTRDTSISTAYMELSRLRSDDTAVYYCARKGIYYSSPFDYWGQGTTVTVSS
VL: DIQMTQSPSSLSASVGDRVTITCRASQDINNYLNWYQQKPGKAPKLLISYTSKLHSGVPSRFSGSGSGTDFTLTISSLQPEDFATYYCQQGNTLPFTFGQGTKLEIK
B16: the “Neutralizing activity IC50” value in assay [1] amounted to 2 nM.

Source of the values: US20200071424A1 (SHIONOGI, published 2020).
